± gives the half width of the 95% confidence interval.
Assays:
[1] = folding stability dG unfold from trypsin proteolysis; higher = more stable
How it was run: (§1)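 Designed mini-proteins with no cysteine and under 80 residues were kept only if AlphaFold2 dimer inter-PAE was above 15. In a PA-tagged cDNA display construct, they were digested with trypsin and chymotrypsin and then sequenced. K50 was inferred by Bayesian fitting of counts, and unfolding free energy was derived per protease or combined against a sequence-predicted unfolded-state K50 and a shared folded-state K50.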

[2] = folding stability dG unfold from chymotrypsin proteolysis; higher = more stable
How it was run: as §1

[3] = folding stability dG unfold (combined trypsin and chymotrypsin); higher = more stable
How it was run: as §1

## SAGRKIEIHVPYDELRELFGPGQTAEDLADWIAQEGYQIEDIEVEPEPNPNNGKKYYRVTFEVKPPKKSAGG [r19_376_TrROS]
[1]
  folding stability dG unfold: 0.345 ± 0.054 kcal/mol
[2]
  folding stability dG unfold: 1.28 ± 0.12 kcal/mol
[3]
  folding stability dG unfold: 0.95 ± 0.11 kcal/mol

## SAGSIEIYIIYPPEDPDQPPTEEEIRSIARSLARQLGLPPKDFPIDVEWRRIDPEDGIYVYEITIEFPSAGG [r19_244_TrROS]
[1]
  folding stability dG unfold: 2.74 ± 0.059 kcal/mol
[2]
  folding stability dG unfold: 3.57 ± 0.062 kcal/mol
[3]
  folding stability dG unfold: 3.27 ± 0.1 kcal/mol

## SAGSIPEEIAKELGLPDLKVLKVETKPLPNGPLNIKIIELELPGGFKIKVTVVEEPEKIIIKTEPVPLSAGG [r19_392_JUSTAS]
[1]
  folding stability dG unfold: 0.966 ± 0.034 kcal/mol
[2]
  folding stability dG unfold: 0.64 ± 0.18 kcal/mol
[3]
  folding stability dG unfold: 0.968 ± 0.27 kcal/mol

## SAGSKTISISVPGNWNIEELKAFLSTLPDNVTVYIFYPNKVYVGTVDKKNINLSADSSYDGFKVLVVVPSAG [r5_373_TrMRF]
[1]
  folding stability dG unfold: 2 ± 0.06 kcal/mol
[2]
  folding stability dG unfold: 3.12 ± 0.028 kcal/mol
[3]
  folding stability dG unfold: 2.84 ± 0.083 kcal/mol

## SAGSKTITLEFNFEELKVKVTVTYDPEGEPTVTVTTTIYAKGGEKLETKTTTVTASPDDPVVKAFLESSSAG [r5_964_JUSTAS]
[1]
  folding stability dG unfold: 2.19 ± 0.041 kcal/mol
[2]
  folding stability dG unfold: 3.16 ± 0.084 kcal/mol
[3]
  folding stability dG unfold: 2.77 ± 0.074 kcal/mol

## SAGSLEKVTESSTSSDKVEVTTTTLTPLSNPSVPVQYVKTTTTTTLIDPATGKTLSTTTTTTTTPLPAASAG [r5_300_JUSTAS]
[1]
  folding stability dG unfold: -0.0274 ± 0.047 kcal/mol
[2]
  folding stability dG unfold: 0.0998 ± 0.19 kcal/mol
[3]
  folding stability dG unfold: 0.053 ± 0.19 kcal/mol

## SAGSLKPGDLLYVRIYVYNPDGELLGEIDELVETEEEAERRLRELAREIEERLGRNVRVLAEIYRYPRLSAG [r5_232_TrMRF]
[1]
  folding stability dG unfold: 3.36 ± 0.088 kcal/mol
[2]
  folding stability dG unfold: 4.559 ± 0.024 kcal/mol
[3]
  folding stability dG unfold: 4.19 ± 0.1 kcal/mol

## SAGSLKPSDLVLLRSRPVRVGGKPVVLVDLVVFHPDGSASRAVLTLPSGVGPPVVGVVPVPALVRLIASSAG [r5_831_TrMRF]
[1]
  folding stability dG unfold: 1.53 ± 0.047 kcal/mol
[2]
  folding stability dG unfold: 2.14 ± 0.084 kcal/mol
[3]
  folding stability dG unfold: 1.95 ± 0.12 kcal/mol

## SAGSMHLVEFTGTEEVVDEFLASLPPEVVVERERYPDRWLVRLPPDVPARTITVPTPDGRPVTFTLRLESAG [r5_123_JUSTAS]
[1]
  folding stability dG unfold: -0.851 ± 0.41 kcal/mol
[2]
  folding stability dG unfold: -0.346 ± 0.31 kcal/mol
[3]
  folding stability dG unfold: -0.487 ± 0.21 kcal/mol

## SAGSMKTVVRVEKEVDPSTGKITITEEIEDKVYTTTMDLNPETGDATSTVTYPDSTIGTTTVPISSISSSAG [r5_415_JUSTAS]
[1]
  folding stability dG unfold: -0.155 ± 0.024 kcal/mol
[2]
  folding stability dG unfold: 0.706 ± 0.052 kcal/mol
[3]
  folding stability dG unfold: 0.432 ± 0.067 kcal/mol

## SAGSMLFDPNGVLREVSVTPDPSTGTTVTTTLVQWPVDDGNGNSVLERITTTTSPSGTVTTSTEVRPAPSAG [r5_303_JUSTAS]
[1]
  folding stability dG unfold: 0.182 ± 0.027 kcal/mol
[2]
  folding stability dG unfold: 0.0881 ± 0.034 kcal/mol
[3]
  folding stability dG unfold: 0.138 ± 0.085 kcal/mol

## SAGSMPPSTTTSEEVTVGGKKVKRTTTVYRAPNGTPSVTSTYTLGETPGVEDPLSGKALTPEERAAAAASAG [r5_138_JUSTAS]
[1]
  folding stability dG unfold: 0.417 ± 0.21 kcal/mol
[2]
  folding stability dG unfold: 0.564 ± 0.28 kcal/mol
[3]
  folding stability dG unfold: 0.668 ± 0.16 kcal/mol

## SAGSMSSVKKVKITTTSYDPTNGAKKETSYDVTVTTTTYPATGEITRTIYFTSTGKWKVEHLPPGAPLASAG [r14_587_JUSTAS]
[1]
  folding stability dG unfold: 1.48 ± 0.066 kcal/mol
[2]
  folding stability dG unfold: 2.15 ± 0.12 kcal/mol
[3]
  folding stability dG unfold: 1.97 ± 0.14 kcal/mol

## SAGSNKKITAEELAKLLEEKFKEKFPDAEIKVHAHAEPRPDDKLIIHVHFEIYRKKPKIGEFDVVIEFESAG [r5_696_TrMRF]
[1]
  folding stability dG unfold: 1.55 ± 0.085 kcal/mol
[2]
  folding stability dG unfold: 2.76 ± 0.043 kcal/mol
[3]
  folding stability dG unfold: 2.38 ± 0.13 kcal/mol

## SAGSPETVTLPLTVTLPPGVPLSQIEAVLKKNGFTELEITASPTPDGTLRYAIDATMPVSVVEKLIKALSAG [r5_376_JUSTAS]
[1]
  folding stability dG unfold: 1.8 ± 0.035 kcal/mol
[2]
  folding stability dG unfold: 2.24 ± 0.042 kcal/mol
[3]
  folding stability dG unfold: 2.08 ± 0.059 kcal/mol

## SAGSPLYEVKSEEVLPGPGGEPMRVTVVELPGGEILTFVESPDGLLEIRYIPAETGKFEKTEKVPRDLLSAG [r5_750_JUSTAS]
[1]
  folding stability dG unfold: 0.445 ± 0.06 kcal/mol
[2]
  folding stability dG unfold: 0.802 ± 0.087 kcal/mol
[3]
  folding stability dG unfold: 0.618 ± 0.15 kcal/mol

## SAGSPPDDVREEETEEVVPSPDGSLTVTRTPVVRRPGEEEEVRTETTVYFPPSDETLTSESLTRFPGASAGG [r19_387_JUSTAS]
[1]
  folding stability dG unfold: 0.356 ± 0.049 kcal/mol
[2]
  folding stability dG unfold: 0.895 ± 0.051 kcal/mol
[3]
  folding stability dG unfold: 0.695 ± 0.095 kcal/mol

## SAGSSPEEIAERLREEAERTEKLPDGSEVRVSVSVDVEVLPNGTVRLTIPRSYPETGVVTTETVTIPVASAG [r5_397_JUSTAS]
[1]
  folding stability dG unfold: 0.0542 ± 0.11 kcal/mol
[2]
  folding stability dG unfold: -0.579 ± 0.33 kcal/mol
[3]
  folding stability dG unfold: -0.194 ± 0.16 kcal/mol

## SAGSSSSLPNVLVVTLYLPDAPLPIVLPVDTPEDVELAKERVKEIEKELEELGLPVNVEFKYYPPGFPVSAG [r5_823_TrMRF]
[1]
  folding stability dG unfold: 0.497 ± 0.065 kcal/mol
[2]
  folding stability dG unfold: -1.16 ± 0.84 kcal/mol
[3]
  folding stability dG unfold: 0.194 ± 0.18 kcal/mol

## SAGSSSVTLFPEYTITTTTLPDGSRSVTINFTNPEEAKKLFEENPEIKELIEKFKKEGWDVKINAKNPSSAG [r14_873_JUSTAS]
[1]
  folding stability dG unfold: 2.98 ± 0.21 kcal/mol
[2]
  folding stability dG unfold: 3.95 ± 0.17 kcal/mol
[3]
  folding stability dG unfold: 3.67 ± 0.22 kcal/mol

## SAGSSTTETFTHPDGSVVTVTEEELPDGSYRVTSVSYEATPDGTVSALLRKPDGTIITVDSLEELFALESAG [r5_618_JUSTAS]
[1]
  folding stability dG unfold: 0.965 ± 0.025 kcal/mol
[2]
  folding stability dG unfold: 1.51 ± 0.076 kcal/mol
[3]
  folding stability dG unfold: 1.34 ± 0.083 kcal/mol

## SAGSVEIKESSLPDSTIITITIPYTSPEEAPERIERLLKELGLSENVQVIEVKYEPSPPVVTVKIKIESAGG [r19_186_JUSTAS]
[1]
  folding stability dG unfold: 2.41 ± 0.077 kcal/mol
[2]
  folding stability dG unfold: 3.21 ± 0.09 kcal/mol
[3]
  folding stability dG unfold: 2.99 ± 0.12 kcal/mol

## SAGSVETFEDPEVGRVVIVPLPGGEVLTIELPPDSITMTLTSPKGGESVTITKKMKPGEEEELIKELASSAG [r5_820_JUSTAS]
[1]
  folding stability dG unfold: -0.521 ± 0.47 kcal/mol
[2]
  folding stability dG unfold: -0.603 ± 0.45 kcal/mol
[3]
  folding stability dG unfold: -0.358 ± 0.3 kcal/mol

## SAGSVEVSVSGNEIHITAPEGISLEELIELIKKLFPGADIGEVSVEKLPDGRYVATFKAGFKPPSPDELSAG [r5_110_TrMRF]
[1]
  folding stability dG unfold: 4.41 ± 0.25 kcal/mol
[2]
  folding stability dG unfold: 4.29 ± 0.14 kcal/mol
[3]
  folding stability dG unfold: 4.34 ± 0.12 kcal/mol

## SAGSVTITLNIPPGQDVTLNIGGKEATLTVDPETKVYTMTDPQTGDVWTVTVDPNSPVASVTYTAAPAGSAG [r5_302_JUSTAS]
[1]
  folding stability dG unfold: 0.996 ± 0.039 kcal/mol
[2]
  folding stability dG unfold: 1.57 ± 0.15 kcal/mol
[3]
  folding stability dG unfold: 1.37 ± 0.11 kcal/mol

## SAGSVTVTETKTEGDKETITMTRPETGETVEEKITKKNGKVKVTKTYYSPSGVKLGSSEKVLSESELLLSAG [r5_308_JUSTAS]
[1]
  folding stability dG unfold: -0.0129 ± 0.18 kcal/mol
[2]
  folding stability dG unfold: -0.195 ± 0.33 kcal/mol
[3]
  folding stability dG unfold: -0.0136 ± 0.26 kcal/mol

## SAGTAKELAELLPGATVEVDEETGTVTVTVELDGYTVRIEIRVDPETGEIVEIRITVTNPDGEEREFELSAG [r5_367_TrROS_Hall]
[1]
  folding stability dG unfold: 3.01 ± 0.077 kcal/mol
[2]
  folding stability dG unfold: 2.92 ± 0.096 kcal/mol
[3]
  folding stability dG unfold: 2.94 ± 0.062 kcal/mol

## SAGTELELEAEAEVLFPELGTRARVRVRARVRPTEDEVEVELEVEAEFEPLPLVPPIVSPEENPELAEGSAG [r14_435_TrMRF]
[1]
  folding stability dG unfold: 3.19 ± 0.12 kcal/mol
[2]
  folding stability dG unfold: 2.7 ± 0.14 kcal/mol
[3]
  folding stability dG unfold: 3.08 ± 0.17 kcal/mol

## SAGTIHFMVPRDEMSDEEAEDIVNTIAKHFPGFKIDRIYWHKQPDPDGDPRRMYHVEIKIKIPLPPGMKSAG [r5_835_TrROS]
[1]
  folding stability dG unfold: 1.29 ± 0.022 kcal/mol
[2]
  folding stability dG unfold: 2.41 ± 0.06 kcal/mol
[3]
  folding stability dG unfold: 2.06 ± 0.059 kcal/mol

## SAGTIRLNGLELEVDIEWWPEHGYITINVTITWPNGRTMMMQIIIKVKPVKPPPPPPPKYDPDNGKPKASAG [r5_816_TrROS]
[1]
  folding stability dG unfold: 2.97 ± 0.1 kcal/mol
[2]
  folding stability dG unfold: 4.38 ± 0.25 kcal/mol
[3]
  folding stability dG unfold: 3.68 ± 0.34 kcal/mol

## SAGTIVFSRDELKELGIPEDMTVEEIKQKILDRLKEEGYEVKITKIEVVEVDEEEGRVLVRITIEVKKPSAG [r5_23_TrROS_Hall]
[1]
  folding stability dG unfold: 3.69 ± 0.14 kcal/mol
[2]
  folding stability dG unfold: 4.28 ± 0.13 kcal/mol
[3]
  folding stability dG unfold: 4.17 ± 0.13 kcal/mol

## SAGTLVLVIEVPLEDVTPEQAEEIAEEAARFLREAGLPEGIEVEDVRVERLPDGRLLVLLPMRILEDESAGG [r19_87_TrMRF]
[1]
  folding stability dG unfold: 1.97 ± 0.056 kcal/mol
[2]
  folding stability dG unfold: 2.59 ± 0.059 kcal/mol
[3]
  folding stability dG unfold: 2.41 ± 0.14 kcal/mol

## SAGTVRLEVTVVIKLTKEQIENLPKDVKLEDGAEIEEKDDYLVIKRTIELPPPVVTDKDGKKLPLEELSAGG [r19_148_TrROS_Hall]
[1]
  folding stability dG unfold: 0.23 ± 0.17 kcal/mol
[2]
  folding stability dG unfold: 1.4 ± 0.087 kcal/mol
[3]
  folding stability dG unfold: 0.938 ± 0.32 kcal/mol

## SAGTVTIGIWIPADDIEQIKELIRSIAEEHGWEVKVDKIEPNPDGQYFVTVTVENPENGKEIKITIWIPSAG [r5_41_TrROS]
[1]
  folding stability dG unfold: 2.98 ± 0.056 kcal/mol
[2]
  folding stability dG unfold: 3.39 ± 0.044 kcal/mol
[3]
  folding stability dG unfold: 3.25 ± 0.11 kcal/mol

## SAGVDGVKWNPESNEVSVEYEVNNQRVEQYIEPKPIPPVIVIPIDDIAERNPGLKDDLDENPGDWLVFPSAG [r5_958_TrROS]
[1]
  folding stability dG unfold: 0.79 ± 0.077 kcal/mol
[2]
  folding stability dG unfold: -0.332 ± 0.089 kcal/mol
[3]
  folding stability dG unfold: 0.415 ± 0.09 kcal/mol

## SAGWFISIKYKDPPTGRKRKISIPIPPGDPWLKELGFPSLDGLAKWLAPEMREEGHDVKDVKVEIMPPKSAG [r5_722_TrROS]
[1]
  folding stability dG unfold: 3.38 ± 0.19 kcal/mol
[2]
  folding stability dG unfold: 4.16 ± 0.059 kcal/mol
[3]
  folding stability dG unfold: 3.75 ± 0.16 kcal/mol

Source: the supplement of paper PMC12764529
